Assay results reported in IntAct's records for PubMed 30559186.

Biological target: bi1_human TMBIM6 (UniProt P55061)
Sequence (P55061 whole entry): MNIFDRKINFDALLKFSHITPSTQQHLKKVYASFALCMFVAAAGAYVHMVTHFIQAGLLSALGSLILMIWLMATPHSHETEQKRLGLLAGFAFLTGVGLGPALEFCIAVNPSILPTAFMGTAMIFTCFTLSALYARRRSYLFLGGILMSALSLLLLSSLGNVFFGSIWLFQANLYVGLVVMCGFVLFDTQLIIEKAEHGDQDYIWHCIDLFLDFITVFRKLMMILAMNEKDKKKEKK

Effect of a mutation on the interaction, with no effect:
Presenilin-1 (Homo sapiens) (from UniProt P49768) M233L
Presenilin-1 (Homo sapiens) (from UniProt P49768) L381V
Presenilin-1 (Homo sapiens) (from UniProt P49768) I439V
Presenilin-1 (Homo sapiens) (from UniProt P49768) V272A
Presenilin-1 (Homo sapiens) (from UniProt P49768) P284S
Presenilin-1 (Homo sapiens) (from UniProt P49768) S169P
Presenilin-1 (Homo sapiens) (from UniProt P49768) I143V
